Assay results from a protein production outcome set (Wang et al. 2014).

Assay: label from the status in PepcDB records

Question: With “MRFGSRIEDGTGAPGAGRLARFAAVGGSGVVVNLAVLHVLAQGLGVPEVAASAVAIEASVLSNFLLHDAITFRDRRGGRGRLARLGRYHAVSLVGVAIQLATFAALALLARHALGRPSLGPLRLPAQAAGIALAFAWSWAGSARWAWAGAGAAVRGPEAGARGRALLPAVLFGALVALHVLPIWLVRYFPTQDGPLHVENVLALLHHGASPLLRGYYEANWGAQPNWLTQALLAPLLSIVSPLTAEKLVLSGYTVLLPISFRAVLPRGARGWWAALAVFPFVHAYPFHMGFWNFCYGVALAFLAAGFWLRTRGRLGPGRFAALAVLSLLLYLAHSVAFAGALLFAGAVLGLRAARSLARARRHPARRRRVAAAYARRAAAGLAAAAPGLLLLGAWLLAHRDRVAARIPLPELAAKLAAGYSLVSIDRRELPLAMAVMLVLAVAVVHAALVRAGRGVRLLAHDGWLVAAAAFVLLYFAVPDVVAAGAHVSDRMALLALLCVAAWLGAASAGPGAPARRAAVALAAIAVVALGVRLDKQRQLSAYLEEYASASAAVEEGRVMLPLALSPYGPQDAHGRRMGYRIKPFLHATGWIVAARGGVDLKNSQANTDHCPVRFPAGRNPFHVIAGSLGRMEGVPPCVDLRGARRLGRLDYVLVWGATRELLETPCGAALAADLAARYEPVWLSAPRGMLEIWRPRAAVAVAR” as the sequence, how does the protein production read?
Answer: failed

Question: For “MIYMDVYMNSYFPHNLDTENSIIDLSKWQELADLIVDIFGADCGAIIKFTGHSFTTMLSSRNEASFLHQGTEWSSDSKSFCRTIIKTGKPLYIANAVEDEYWFDAPPVVNGPVRSYCGVPIFSPDGSIYGTICAIDTKSTRYEDALTKLLLHLSKLITSDLKIAEKAEQHRLMALTDQTTGLLNRRGLNVLSEQKFKDAKRNQDHIGVLYLDIDNLKIINDNFGHLAGDKCIKLLATILKKMVRQSDLIARIGGDEFTVLALINSENTNELDHLSMRIREVYQNEIKDNAELNMSNISIGQHLVSYDSNASLKEMLAKADSLMYQEKIDKS”, which protein production is on record?
Answer: failed

Question: For “MKLNRAIGVIDSGVGGLTVAKELIRQLPKERIIYLGDTARCPYGPRSREEVRQFTWEMTEHLLDLNIKMLVIACNTATAVVLEEMQKQLPIPVVGVIHPGSRTALKVTNTYHVGIIGTIGTVKSGAYEEALKSINNRVMVESLACPPFVELVESGNFESEMAYEVVRETLQPLKNTDIDTLILGCTHYPILGPVIKQVMGDKVQLISSGDETAREVSTILYHSKMLNEGEEQSDHLFLTTGKIGLFKEIASKWFGQPIENVKHIHLEKE”, which protein production is on record?
Answer: failed

Question: With “DLSSVIKASQTLASEIKLEKLLSTLMELVIENAGAKKCVLVLLKNERLLIEAIAKINQVPISTILVSIPIAESDEIPISLINYVSHTSQTLVIDDATTEDLFISDPYIQQKEPKSLLCTPIIKQGKLMGILYLENHLTTGAFTSDRLQVINLLMAQAAISLENAQLYGQLAEYSQNLELKVEQRT” as the sequence, how does the protein production read?
Answer: failed

Question: Which protein production does the source give for “MSVKIVHHKNFLGMIKELMKDAQSVLDIGCGVGATLKDFPCPIKIGVDAHGPYLEKARLATSFLPIKYEAQRIGEIFLAKSVDCVSMIDVIEHMEKGVGYEVLAQAERIAVKRVIVFTPRGFFKQKAEDHYGLGGESFQEHRSGWEIEDFTQRGYQVIVFNQFHDQSNLAFVESYGKDAKPMDALLAWKELR” here?
Answer: not failed

Question: With “MITLNAWYVTWTELYKKKTVKMTTIYKNHSYYNSRVKNSIGKMYLQDIKTYHVQKFLNDLIDSGLAHGTVSNIRFMLSDMFDKAVLSEYIRKNPCIGVEMPKEVKKERLEHHHHHH” as the sequence, how does the protein production read?
Answer: failed

Question: With “MARTRSADYENIRDTIIERAAAMFARQGYSETSIGDIARACECSKSRLYHYFDSKEAVLRDMLTTHVDSLLERCRQVLYGSNEPKTRFLQIVKLFLEIYATSRDRHVVMLTCLDALPEDQRKALIAKQRELIAYVRDALLQLRPDMAANRTLAHVDTMLFFGMINWTYTWYKADGSVSPDALAERTVQLFLDGYLNLLSA” as the sequence, how does the protein production read?
Answer: not failed

Question: Which protein production does the source give for “MLRVVSLTLVTLISAVAAAAAEPQAGDDLAICRDRQAELQARAQACDNLLNADRLAGKDKAIALSVRGNTLINKRDYARAIETLSMAVDLDPDNVIVLNLRGLAYERSGKDDLAMADYNLALQKRPTYGVPYNNRGVIHLRRGALQSALDDFNLSIKYTPKFLLGWTNRARVRTLMKDFDGAIADFAEAEKIDPAAPQIAGNRCITWGMMGKYDQAFADCNGLIEKQPKNVYAINNRADVSMMKGDLDAALKDYNSAIQINPNNVRAHSGRGQIYERRKDLAQARADYRAAAYSLTKFDELDVARARAVAQERLAALTPQAPAGATGRRVALVIGNGAYKNVHALPNPPRDSKLIANALRDVGFQTVISVSDLTRDKFFEALQTFAAEAEKADWAVVYYAGHGFEIGGVNYLVPVDAKLAADRDAEAQAVALEQVIAAVGAARKVRLVMLDACRDNPFAPTMQRTLSLKLVDKGFSNIEPGAGFMVVYAAKHGETAMDGDGGTDSPFATALAREIKEPRVEIRKLFDIVRDDVWSATRHEQQPFTYGSPPGREDFYFAAGK” here?
Answer: failed

Question: With “MGSTFFGRPNVVGSSPPSSSPTSSSSSPATRRGKKNGSEKPKQPQRGLGVAQLEKIRLHGEMSCNSFNSYNPSLYPQVTYTNTSLHNRDSDPKASKLIKTRYICV” as the sequence, how does the protein production read?
Answer: failed

Question: Which protein production does the source give for “MKKPVLETWLERGLFASRWLMAPFYVGLVVALAALMVVFFQELFQELPRVPSMTPESAILMALTLIDLSLAANLMVIVILSGYENFVSKIDTASHEDRPEWMGTVDFSGLKMKLIASIVAISAIALLKAFLKLTEPGQTVDQVRLFWLVMVHLSFVVSGVLLAVMDWLNAKVAKS” here?
Answer: failed

Question: For “MDELRFAAVGLNHNHIYGQVNCLLRAGARLAGFHEKDDALAAEFSAVYADARRIATAEEILEDENIGLIVSAAVSSERAELAIRAMQHGKDVLVDKPGMTSFDQLAKLRRVQAETGRIFSILYSEHFESPATVKAGELVAAGAIGEVVHIVGLGPHRLRRETRPDWFFRRADYGGILTDIASHQCEQFLFFTGVNDATVLSASVGNQSVPDAPELQDTGSIHLSTGRTTGMIHVNWLTPEGMPTWGDGRLFIVGTSGTIEVRKTVDLAGREGGNHLFLADRNGVEHIDCSRVDLPFGRQFLADIRDRTETAMPQERCFKAMELALQAQAIAEQNGDRN”, which protein production is on record?
Answer: not failed

Question: For “MRVPALKPILLQLHSVAGLVLAAVLVLVALTGAVMSFEDEIRGALDAGRVQLAPHAGSRMPLDALIAKLQAGGDPVASITMPRSAASAAEVRFARKPDHTRPAPLYLDPYTGESLGHPAADAFFATVRKLHRWLLLPGDGNGYGRTITGVAALGLLAMLLTGLVLRWPHRPGSIKVWLKPHWQLRGRGLHRSLHAVIGTWVLLLYLIMTLTGLWWSFDWYKTAATWLLARSPVTMQPPNRAAVTAAPSAAISLDRVWATLVAERGDRFEAARLTLPSGREGTVRVRAWLTDARDGAHDEFRIDGRSGQVLSADIYADKTIGEKVLARVLDIHRGSIFGWPGQLLFMLAAAAMPLFGVTGVLLYLSRRRHQRMQRAARAKVG”, which protein production is on record?
Answer: failed

Question: Which protein production does the source give for “TLDAGLQRQLEDLALNWKSRLPPRSSLAMVVVDHTDMKVRGWVGSADITDDSRFGHIDMVSAVRSPGSVLKPFIYAMAMDEGLIHPASLLQDVPRRFSDYRPGNFDSGFHGPVSASEALVRSLNLPAVQVLEAYGPKRFAANLRNAGLPLTLPAGAEPNLSLILGGAGARLEDIVAAYSAFARHGKAARLRLKPSDPLTERALMSPGAAWIVRRILAGEAQPVPDASLPQAVPLAWKTGTSYGYRDAWAVGLNARYLIGIWTGRPDGTPVVGQFGFASAVPLLNQVNNLLLARPAMSRGGL” here?
Answer: failed

Question: With “MSRVQMDTEEVREFVGHLERFKELLREEVNSLSNHFHNLESWRDARRDKFSEVLDNLKSTFNEFDEAAQEQIAWLKERIRVLEEDY” as the sequence, how does the protein production read?
Answer: not failed

Question: With “PITDERVYESIGHYGGETVKIVRIEKARDIPLGATVRNEMDSVIISRIVKGGAAEKSGLLHEGDEVLEINGIEIRGKDVNEVFDLLSDMHGTLTFVLIPS” as the sequence, how does the protein production read?
Answer: not failed

Question: With “MLSLKKSLNPPSSFGWSDPDPCKWTHIVCTGTKRVTRIQIGHSGLQGTLSPDLRNLSELERLELQWNNISGPVPSLSGLASLQVLMLSNNNFDSIPSDVFQGLTSLQSVEIDNNPFKSWEIPESLRNASALQNFSANSANVSGSLPGFLGPDEFPGLSILHLAFNNLEGELPMSLAGSQVQSLWLNGQKLTGDITVLQNMTGLKEVWLHSNKFSGPLPDFSGLKELESLSLRDNSFTGPVPASLLSLESLKVVNLTNNHLQGPVPVFKSSVSVDLDKDSNSFCLSSPGECDPRVKSLLLIASSFDYPPRLAESWKGNDPCTNWIGIACSNGNITVISLEKMELTGTISPEFGAIKSLQRIILGINNLTGMIPQELTTLPNLKTLDVSSNKLFGKVPGFRSNVVVNTNGNPDIGKDKSSLSSPGSSSPSGGSGSGINGDKDRRGMKSSTFIGIIVGSVLGGLLSIFLIGLLVFCWYKKRQKRFSGSESSNAVVVHPRHSGSDNESVKITVAGSSVSVGGISDTYTLPGTSEVGDNIQMVEAGNMLISIQVLRSVTNNFSSDNILGSGGFGVVYKGELHDGTKIAVKRMENGVIAGKGFAEFKSEIAVLTKVRHRHLVTLLGYCLDGNEKLLVYEYMPQGTLSRHLFEWSEEGLKPLLWKQRLTLALDVARGVEYLHGLAHQSFIHRDLKPSNILLGDDMRAKVADFGLVRLAPEGKGSIETRIAGTFGYLAPEYAVTGRVTTKVDVYSFGVILMELITGRKSLDESQPEESIHLVSWFKRMYINKEASFKKAIDTTIDLDEETLASVHTVAELAGHCCAREPYQRPDMGHAVNILSSLVELWKPSDQNPEDIYGIDLDMSLPQALKKWQAYEGRSDLESSTSSLLPSLDNTQMSIPTRPYGFAESFTSVDGR” as the sequence, how does the protein production read?
Answer: not failed

Question: For “MAYSACFLHQSALASSAARSSSSSSSQRHVSLSKPVQIICKAQQSHEDDNSAVSRRLALTLLVGAAAVGSKVSPADAAYGEAANVFGKPKTNTDFLPYNGDGFKVQVPAKWNPSKEIEYPGQVLRFEDNFDATSNLNVMVTPTDKKSITDYGSPEEFLSQVNYLLGKQAYFGETASEGGFDNNAVATANILESSSQEVGGKPYYYLSVLTRTADGDEGGKHQLITATVNGGKLYICKAQAGDKRWFKGARKFVESAATSFSVA”, which protein production is on record?
Answer: failed

Question: For “ASHLQFVQPKKAPPLSVSLIQGNIPQDLKWLTEYQFKTLMIYANLTRSEWGRDLIVWPESSIPMFQTDIQPFLDAMNQQAKNRGSAWVTGIPYWDVTGSREVGTPLYYNSIMASGDNSQGLYKKQRLVPFGEYIPLSGLLSWVLPALQNDPSMSGFSQGSNNQKPLMIKGHRLAAAICYEVAYPNLTRRNAENSDFLVTVSNDAWFTGTAGPMQHLQMVQMRAKENGRWFIRATNTGVTAFIDSQGHIVKQAPIDKEAVLRGDLPAMQGETLYTRLSDWPILLFSVLLLILGWIYRPRQVDVSFKSRR”, which protein production is on record?
Answer: failed

Question: Which protein production does the source give for “MSQYQRLLLIADPQQHQSPAARRAVALARASGAALHALVFVEPPARTYLWEEHLEDSEREAYLQRHERWLQVEAQWMAEEGVQVTTQVIWSTQVLKDMLAYIDEFRPDLLIKDVTLESALKRVFVTPLDCHLLREAPVPVHLVNDAPHKLPRRIVAAVDPAQSDTQIRGLNTQIIQTAHALALQCDAQLHLLYAYDLMPMLDGVAPVASTAWSVNCLDELRDSLHKEFERLGDEHNVPQEFRHFIMGPPVPGIAQFVDEYLVDVVVMGTVHRTGFGRLIGSTTERALYSMPGSILAVKASGAA” here?
Answer: failed

Question: For “MPAPLRFSSDKPLLLLIDMQQAVDDPSWGPRNHPQAEQACAGLLQAWRARGLPLIHIRHDSVEPNSTYRPGQPGHAFKPEVEPRPGETVIAKQTNSAFIGTGLEALLRANGWLELVVAGVSTSNSVEATVRMAGNLGFAVCLAEDGCFTFDKTDWHGRRRSADEVHAMSLANLDGEYCRVCGSADILAALGNIAGAA”, which protein production is on record?
Answer: not failed

Question: For “EMFYFEPVNIKKYLGSIGSELSDEVITIEQFFNLNSEYITIIDARSPREFSEKTISNAVNIPLFLTEEYETIGKLYKHEGKEVAIAKAGIIIQDGIKRIVSESLKLDPNKNLVVFCARGGMRSQSIATILKLLGFKVKRLVGGFKSYNISKT”, which protein production is on record?
Answer: failed

Question: For “MFAYSARLFLRPLWSDDLGVLLDLLDTASSRSGLLDSPDNDVTRYLRDNAARLIHENDVTRPHSGIFLRDGKEPRLIGITALAGKEAHFFCWIAPAFRGQGFATEASRLMLHFADEALRLPSLTAAYDHADAAAEKLLTKLGFSE”, which protein production is on record?
Answer: failed
